Target: cynomolgus GITR (cyno-GITR) (cynomolgus)
Assay: ELISA, cyno GITR coated at 1 ug/ml

Substance: reference antibody BMAB (Merck's MK-4166 antibody)
- EC50: 0.269 nM
